Results on 30 sequences are retold here after the nanobody polyreactivity screen of Harvey et al. (2022).

The nature of the data set: yeast display, Sf9 membrane polyspecificity reagent, FACS + sequencing; frameworks hold sequencing errors. The procedure, abridged: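 Sorting gates, low and high (top ~1%), were placed on anti-HA fluorescence to track expression and on streptavidin fluorescence to track reagent binding. A clone's polyreactivity label is taken from the gate it came out of. The reagent was 10% biotinylated, detergent-solubilized Sf9 membrane, applied for 1 hour at 4 °C to galactose-induced yeast display cells.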
Take “QLQLVESGGGLVQAGGSLRLSCAASGYTFKWYAMGCYRQAPGKERELVAAIRGSGGSSYYAVSVKGRFTISRDNAKNTVYLQMNSLKPEDTAGYYCNAVLRWAQNPRIFLGYDYWGQGTQVTVSS”: the “polyreactivity (PSR sort gate)” value is listed as “high polyreactivity”. The entry for “QVQLVESVGGLVQAGGSLRLSCAASGRTLLYNAMGWYRQAPGKERELVAAISRGGSTYYADSVNGRFTISRDNAKNTVYLQMNSLKPEDTAVYYCATGTWRYRYDYWGQGTQVTVSS” is “low polyreactivity”. With “QVQLVESGGGLVQAGGSLRLSCAASGIIFRYYAMGWYRQAPGKERELVAAISRGGSTYYADSVKGRFTISRDNAKNTVYLQMNSLKPEDTAVYYCAATSYRRTGYNYWGQGTQVTVSS”, the “polyreactivity (PSR sort gate)” value is listed as “high polyreactivity”. Turning to “QVQLVESGGGLVQAGGSLRLSCAASGRTFRPYAMGWYRQAPGKERELVARITSGGGRTYYADSVKGRFTISRDNAKNTVYLQMNSLKPEDTAVYYCNKAIYSLYRDGYTNFDYWGQGTQVTVSS”, the “polyreactivity (PSR sort gate)” value is listed as “high polyreactivity”.

For the sequence “QVQLVESGGGLVQAGGSLRLSCAASGRTFDTYAMGWYRQAPGKEREFVARISYGGGITYYADSVKGRFTISRDNAKNTVYLQMNSLKPEDTAVYYCAARRFRTYDFYYWGQGTQVTVSS”, the “polyreactivity (PSR sort gate)” value was “high polyreactivity”.

As to “QVQLVESGGGLVQAGGSLRLSCAASGRIFWHNTMGWYRQAPGKERELVATITGGDGNTYYADSVKGRFTISRDNAKNTVYLQMNSLKPEDNAVYYCAKAIVSYDYGRYGKWHEYWGQGTQVTVSS”, the “polyreactivity (PSR sort gate)” value was “low polyreactivity”. Take “QVHLVESGGGLVQAGGSLRLSCAPSGRTFFINAMGWYRQAPGKERELVAAIRVGAGSTYYADSVKGRFTISRDNAKNTVYLQMNSLKPEDTAVYYCAAKRVGSREYYWGQGTQVTVSS”: the “polyreactivity (PSR sort gate)” value was “high polyreactivity”.

With “QVQLVESGGGLDQAGGSLRLSCAASGSTFVFYAMVWYIQAPGKEREFVAAITNSGSNTYYADSVKGRFTISRDNAKMTVNLQMNSLKPEDTAVYYCAARPFGRYRGRYYYWGQGTQVTVSS”, the “polyreactivity (PSR sort gate)” value was “high polyreactivity”. As to “QVQLVESGGGLVQAGGSLRLSCAASGSTFDNYAMGWNRQAPGKERELVADITWSGGSTYYADSVKGRFTSSRDNAKNTVYLQMNSLKPEDSAVYYCNSAGYYTKYDYWGQGTQVTVSS”, the “polyreactivity (PSR sort gate)” value is “low polyreactivity”. As for “QDQLVESGGGLVQAGGSLRLSCASSGSTFYYKAMGWSRQEPGKERELVARISRSGGSTYADSVKGRFTISRDNAKYTVYLQMNSLKPEDTAVYYCNADAYGTPEFTSYAVRYDYWGQGTQVTVSS”, the “polyreactivity (PSR sort gate)” value was “low polyreactivity”.

As for “QVQLVESGGGLVQAGGSHRLSCAASGITFNVYAMGWYRQATGKERELVAAISYNGGRTYYADSVKGRFTISRDNAKNTVYLQMNSLKPEDTAVYYCNTVSLSLRYDYWGQGTQVTVSS”, the “polyreactivity (PSR sort gate)” value is recorded as “high polyreactivity”. Take “QVQLVESGGGLVQAGGSLRLSCAASGRIFAHYTMGWYRQAPGKERELVAAISIRGGRTNYTDSVKGRFTISRDNAKNTVYLQMNSLKPEDTAVYYCNARGARYYWYQLGHDYWGQGTQVTVSS”: the “polyreactivity (PSR sort gate)” value is “high polyreactivity”.

In the case of “QVQLVESGGGLVQAGGSLSLSCAASGRTFSYYTMGWYRQAPGKERELVARISNRGTNTYYADSVKGRFTISRDNAKNTVYLQMNSLTPEDTAVYYCAKYYYTSIVGYDSWGQGTQVTVSS”, the “polyreactivity (PSR sort gate)” value is given as “low polyreactivity”. On to “QVQLVESGGGLVQAGGSLRLSCAASGSTFWVYTMGWYRQAPGKERALVAAINYSDGSTYYADSVKGRFTISRENAKNTVYLQMNSLKPEDTAVYYCAAGSDPTGRRYEYWGQGTQVTVSS”, for which the “polyreactivity (PSR sort gate)” value was “low polyreactivity”. On to “QVQLVDSGGGLVQAGGSHRLSCADSGTFVYNAMGWYRQAPGKEREFVAAITKSGTSTSYADSVKGRFTISRDNAKNTVYLQMNSLIPEATAVYYCNARRYWYRRAYSVGYDYWGQGTQVTVSA”, for which the “polyreactivity (PSR sort gate)” value was “high polyreactivity”. Regarding “QVQLVESRGGLVQAGGSLRLSCAASGFTFYYYAMGWYRQAPGKERELVAAISGRGGSTYYADSVKGRFTISRDNAKNSVYLQMNSLKPEDTAVYYCAAVPIVRLEYWGQGTQVTVSS”, the “polyreactivity (PSR sort gate)” value is “high polyreactivity”. Regarding “QVQLVESGGGLVQAGGSLRLSCAASGSTFQIYAMGWYRQAPGKEWELVAAITSSSSTNYADSVKGRFTISRDNAKNTVYLQMNSLKPEDTAVYYCAADVSWRSNWYDYWGQGTQVTVSS”, the “polyreactivity (PSR sort gate)” value is “low polyreactivity”. “QVQLVESGGGLVQAGGSLRLSCAASGRIFYQYAMGWYRQAPGKERELVAAITRGGNTYYADSVKGRFTISRDNAKNTVYLQMNSLKPEDTAVYYCNARWHTTGYRYDYWGQGTQVTVSS”: the “polyreactivity (PSR sort gate)” value was “high polyreactivity”. Consider “QVQLVESWGGLVQAGGSLRLSCAASGFIFYRYAMGWYRQAPGKERELVAVISVSGGSTYADSVKGRFTISRDNAKNTVYLQMNSLKPEDTAVYYCAARRYSYYRVHGTRHDYWGQGTQVTVSS”, for which the “polyreactivity (PSR sort gate)” value is “high polyreactivity”. With “QVQLVESGGGLVQAGGSLRLSCAASGFIFAYYAMGWYIQAPGKERELVAAISLSGARTYYADSVKGRFTISRDTAKNTVYLQMNSLKPEDTAVYYCAATPWSYEYYYWGQGTQVTVSS” the entry was “low polyreactivity”; with “QVQLVESGGGVVQAGGSLRLSSAASGRIIRYYTMGWYRQAPGKERELVAAIRTYGGRTYYADSVKGRFTISRDNAKNSVYLQMNSLKPEDTAVYYCAADGGRPRYDSWGQGTQVTVSS”, “high polyreactivity”; with “QVQLVESRGGLVQAGGSLRLSCAASGFTFRAYAMGWYREAPGKERELVAAISTGGGSTYYADSVKGRFTISRDNAKITVYFQMNSLKPEDTAVYYCNALPQRRYYYWGQGTHVTVSS”, “high polyreactivity”. As for “QVQLVESGGGLVQAGGSLRLSCAASGFIFAFYAMGWYRQAPGKERELVAAISLSGGSTYYADSVKGRFTISRDNAKITVYLQMNSLKPDDTAVYYCAASRYKFYYWGQGTQVTVSS”, the “polyreactivity (PSR sort gate)” value is listed as “high polyreactivity”. Turning to “QVQLVESGGGLDQAGGSLRLSSAASGLTFGGNAMGWYRQAPGKERELVAAISWSDDTTDYADSVKGRFTISRDNAKNTVYLQMNSLKPEDTAVYYCAARLPFEHVEYWGQGTQVTVSS”, the “polyreactivity (PSR sort gate)” value is “low polyreactivity”. With “QVQLVESGGGLVQAGGSLRLSCAASGFIFRYYAMGWYRQAPGKERELVAAISSRAGRTYADSVKGRFTISRDNAKYSVYLQMNSLKPEDTAVYYCAVRSKRKDVGYWGQGTQVTVSS”, the “polyreactivity (PSR sort gate)” value was “high polyreactivity”.

Turning to “QVQLVESGGGLVQAGGSLRLSCAASGRIFAFYAMGWYRQAPGKERELVAAITWSGGSTYYADSVKGRFTISRDNAKNTVYLQMNSLKPEDTAVYYCAARYRHYFVRGGYWGQGTQVTVSS”, the “polyreactivity (PSR sort gate)” value is “high polyreactivity”. The entry for “HVQLVESGGGLVQAGGSLRLSCAASGFISVRNGMGWYRQAPGKERELVAAITGSGGSTYYADSVKGRFTISRDNAKNTVYLQMNSLKPEDTAVYYCARTYTVSRKRMGYWGQGTQVTVSS” is “high polyreactivity”; for “HVQLVESGGGLVHAGGSLRLSCAASGAIFWVNAMGWYREAPGKERELVADISRSGANTYYADSVKGRFTISRDNAKNTVYLQMTSLNPEDTAVYYCAKGVFYPWWYVQPEHDYWGQGTQVTVSS” it is “high polyreactivity”.

Turning to “QVQLVESGGGLVQAGGSLRLSCAASGIIFRGNAMGWYRQAPGKERELVAAISRSGRTNYADSVKGRFTISRDNAKNTVYLQMNSLKPEDTAVYYCAVDKRYGRVVGRDYDYWGQGTQVTVSS”, the “polyreactivity (PSR sort gate)” value was “high polyreactivity”. Take “QVQLVESGGGLVQAGGSLRLTCAASGLTFERYAMGWYRQAPGKETELVAAISIRGGSTYYADSVKGRFTISRYNAKNTVYLQMNSLKPEVTAVYYCSADGRGREYDYWGQGTQVTVSS”: the “polyreactivity (PSR sort gate)” value was “low polyreactivity”.
